B1: Cytochrome c', P00149 (parent)
chain: MKLRIATIAGLVVLGSGFAVAQTDVIAQRKAILKQMGEATKPIAAMLKGEAKFDQAVVQKSLAAIADDSKKLPALFPADSKTGGDTAALPKIWEDKAKFDDLFAKLAAAATAAQGTIKDEASLKANIGGVLGNCKSCHDDFRAKKS

Variants of: B1
Conditions: Rhodopseudomonas palustris (strain ATCC BAA-98 / CGA009); pH 6.5; 25 °C; GdnHCl; CD; MES 20 mM; NaCl 40 mM; structure 1A7V; whole UniProt chain shown

**Q.** With MKLRIATIAGLVVLGSGFAVAQTDVIAQRKAILKQMGEATKPIAAMLKGEAKFDQAVVQKSLAAIADDSKKLPALFPADSKTGGDTAALPKIWEDKAKFDDLFAKLAAAATAAQGTIKDEASLKHNIGGVLGNCKSCHDDFRAKKS [A125H] as the variant, how does the denaturant m value read?
**A.** 5.59 kcal/mol/M

**Q.** And the “denaturant midpoint (higher = more stable)” value (“denaturant midpoint” below)?
**A.** 1.09 M

**Q.** And the unfolding free energy?
**A.** 6.08 kcal/mol

**Q.** For MKLRIATIAGLVVLGSGFAVAQTDVIAQRKAILKQMGEATKPIAAMLKGEAKFDQAVVQKSLAAIADDSKKLPALFPADSKTGGDTAALPKIWEDKAKFDDLFAKLAAAATAAQGTIHDEASLKANIGGVLGNCKSCHDDFRAKKS [K118H], which denaturant m value is on record?
**A.** 5.28 kcal/mol/M

**Q.** What about the “denaturant midpoint” value of the same variant?
**A.** 1.29 M

**Q.** What about the unfolding free energy of the same variant?
**A.** 6.8 kcal/mol

**Q.** For MKLRIATIAGLVVLGSGFAVAQTDVIAQRKAILKQMGEATKPIAAMLKGEAKFDQAVVQKSLAAIADDSKKLPALFPADSKTGGDTAALPKIWEDKAKFDDLFAHLAAAATAAQGTIKDEASLKANIGGVLGNCKSCHDDFRAKKS [K105H], which denaturant m value is on record?
**A.** 5.32 kcal/mol/M

**Q.** And the “denaturant midpoint” value?
**A.** 1.11 M

**Q.** And the unfolding free energy?
**A.** 5.89 kcal/mol

**Q.** With MKLRIATIAGLVVLGSGFAVAQTDVIAQRKAILKQMGEATKPIAAMLKGEAKFDQAVVQKSLAAIADDSKKLPALFPAHSKTGGDTAALPKIWEDKAKFDDLFAKLAAAATAAQGTIKDEASLKANIGGVLGNCKSCHDDFRAKKS [D79H] as the variant, how does the denaturant m value read?
**A.** 4.8 kcal/mol/M

**Q.** What about the “denaturant midpoint” value of the same variant?
**A.** 1.4 M

**Q.** And the unfolding free energy?
**A.** 6.72 kcal/mol

**Q.** With MKLRIATIAGLVVLGSGFAVAQTDVIAQRKAILHQMGEATKPIAAMLKGEAKFDQAVVQKSLAAIADDSKKLPALFPADSKTGGDTAALPKIWEDKAKFDDLFAKLAAAATAAQGTIKDEASLKANIGGVLGNCKSCHDDFRAKKS [K34H] as the variant, how does the denaturant m value read?
**A.** 4.91 kcal/mol/M

**Q.** What about the “denaturant midpoint” value of the same variant?
**A.** 1.66 M

**Q.** What about the unfolding free energy of the same variant?
**A.** 8.17 kcal/mol

**Q.** Which results are given for MKLRIATIAGLVVLGSGFAVAQTDVIAQRKAILKQMGEATKPIAAMLKGEAKFDQAVVQKSLAAIADDSKKLPALFPADSKTGGDTAALPKIWEDKAKFDDLFAKLAAAATHAQGTIKDEASLKANIGGVLGNCKSCHDDFRAKKS [A112H]?
**A.** denaturant m value: 5.75 kcal/mol/M; denaturant midpoint (higher = more stable): 1.23 M; unfolding free energy: 7.07 kcal/mol

**Q.** Which denaturant m value does the source give for MKLRIATIAGLVVLGSGFAVAQTHVIAQRKAILKQMGEATKPIAAMLKGEAKFDQAVVQKSLAAIADDSKKLPALFPADSKTGGDTAALPKIWEDKAKFDDLFAKLAAAATAAQGTIKDEASLKANIGGVLGNCKSCHDDFRAKKS [D24H] here?
**A.** 5.08 kcal/mol/M

**Q.** And the “denaturant midpoint” value?
**A.** 1.46 M

**Q.** What about the unfolding free energy of the same variant?
**A.** 7.41 kcal/mol

**Q.** Which denaturant m value does the source give for MKLRIATIAGLVVLGSGFAVAQTDVIAQRKAILKQMGEATKPIAAMLKGEAKFDQAVVQKSLAAIADDSKKLPALFPADSKTGGDTHALPKIWEDKAKFDDLFAKLAAAATAAQGTIKDEASLKANIGGVLGNCKSCHDDFRAKKS [A87H] here?
**A.** 4.88 kcal/mol/M

**Q.** And the “denaturant midpoint” value?
**A.** 1.39 M

**Q.** What about the unfolding free energy of the same variant?
**A.** 6.79 kcal/mol

**Q.** Which denaturant m value does the source give for MKLRIATIAGLVVLGSGFAVAQTDVIAQRKAILKQMGEATKPIAAMLKGEAKFDQAVVQKSLAAIADDSKKLPALFPADSKTGGDTAALPKIWHDKAKFDDLFAKLAAAATAAQGTIKDEASLKANIGGVLGNCKSCHDDFRAKKS [E94H] here?
**A.** 5.08 kcal/mol/M

**Q.** And the “denaturant midpoint” value?
**A.** 1.13 M

**Q.** What about the unfolding free energy of the same variant?
**A.** 5.76 kcal/mol

**Q.** Which denaturant m value does the source give for MKLRIATIAGLVVLGSGFAVAQTDVIAQRKAILKQMGEATKPIAAMLKGEAHFDQAVVQKSLAAIADDSKKLPALFPADSKTGGDTAALPKIWEDKAKFDDLFAKLAAAATAAQGTIKDEASLKANIGGVLGNCKSCHDDFRAKKS [K52H] here?
**A.** 5.04 kcal/mol/M

**Q.** What about the “denaturant midpoint” value of the same variant?
**A.** 1.47 M

**Q.** And the unfolding free energy?
**A.** 7.41 kcal/mol

**Q.** Which denaturant m value does the source give for MKLRIATIAGLVVLGSGFAVAQTDVIAQRKAILKQMGEATKPIAAMLKGEAKFDQAVVQKSLAAIADDSHKLPALFPADSKTGGDTAALPKIWEDKAKFDDLFAKLAAAATAAQGTIKDEASLKANIGGVLGNCKSCHDDFRAKKS [K70H] here?
**A.** 4.66 kcal/mol/M

**Q.** What about the “denaturant midpoint” value of the same variant?
**A.** 1.45 M

**Q.** What about the unfolding free energy of the same variant?
**A.** 6.75 kcal/mol

Reference: FireProtDB (doi:10.1016/j.jmb.2009.07.074)
